Experimental findings from the nanobody polyreactivity screen of Harvey et al. (2022) are described below.

The series is described as follows: yeast display, Sf9 membrane polyspecificity reagent, FACS + sequencing; frameworks hold sequencing errors. The gist of the method:
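A synthetic nanobody library was expressed on Saccharomyces cerevisiae BJ5465 by galactose induction for 36–48 hours. The library was stained for 1 hour at 4 °C with 10% biotinylated, detergent-solubilized Sf9 membrane reagent and enriched with streptavidin microbeads before FACS. Low and high (top ~1%) gates were set on anti-HA fluorescence for expression and streptavidin fluorescence for reagent binding, and each polyreactivity label reflects the gate of origin.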
For “QFQLVESGGGLVQAGGSLRLSCAASGRTFRGYAMGWYRQAPGKERELVAAITWRGGSTYYADSVKGRFTISRDNAKNTVYLQMNSLKPEDTAVYYCNTLVWSYLGGYYSRFDYWGQGTQVTVSS”, the “polyreactivity (PSR sort gate)” value is “high polyreactivity”.

As for “QVQLVESGGGLVQAGGSLRLCCAASGIIFYSYAMGWYRQAPGKEREFVAAITNSDGSTYYADSVKGRFTISRDNAKNTVYLQMNSVKPEDTAVYMFYWGQGTQVTVSS”, the “polyreactivity (PSR sort gate)” value is listed as “low polyreactivity”.

With “QVQLVESGGGLVQAGGSLRLSCAPSGSTFGWYAMGWYRQAPGKESELFAAITGDSASTYYADSVKGRFTISRDNAKNTVYLQMNSLKQEDTAVYYCAATKFSDFAYEAVIGYGYWGQGTQVTVSS”, the “polyreactivity (PSR sort gate)” value is given as “low polyreactivity”.

“QVQLVESGGGLVQAGGSLRLSCAASGVTFIYYTMGWYRQAPGKERDLVATISRRGDSPYYADSVKGRFTISRDNAKNTVYLQMNSLKPEDTAVYYCNAVTRAAYWWTARSTDYDYWGQGTLVTVSS”: the “polyreactivity (PSR sort gate)” value is “high polyreactivity”.

For “QVQLVESVGGLVQAGGSLRLSCAASGRTFFYNAMGWYRQAPGKERELVAAIDWSGDSTYYADSVKGRFTISRDNAKNTVYLQMNSLKPEDTAVYYCAARRKNRRDYDYYYWGQGTQVTVSS”, the “polyreactivity (PSR sort gate)” value is reported as “high polyreactivity”.

Take “QVQLVESGGGLVQAGGSLRLSCAASGSIFPPNAMGWYRQAPGKERELVAAISRRGGSTYYADSVKGRFTISRDNAKNTVYLQMNSLKPEDTAVYYCAARGGQMEYWGQGTQVTVSS”: the “polyreactivity (PSR sort gate)” value was “high polyreactivity”.

Turning to “QVQLVESGGGLVQAGGSLRLSSAASGSTIRTNAMGWYRQAPGKATELVAAISKSGGRTYYADSVKGRFTISRDNAKNTVYFQMNSLKPEDTAVYYCNVPRDVVPKVRAHDYWGQGTQVTVSS”, the “polyreactivity (PSR sort gate)” value is reported as “high polyreactivity”.

On to “QVQLVESGGGLVQAGGSLRLSCAASGGTFTWYAMGWYRQAPGKERELVAAISSDGSTYYADSVKGRFTISRDNAKNTVYLQMNSLKPEDTAVYYSAAYSSWGGFDYWGQGTQVTVSS”, for which the “polyreactivity (PSR sort gate)” value was “low polyreactivity”.

Consider “QVQLVESGGGLVQAGGSLRLSCAASGFILLDNAMGWYRQAPGKEREFVASINISGDRTFYADSVKGRFTISRDNAKNTVYLQMNSLKPEDTAVYYCAKEPGWGRRSTTAYDYWGQGTQVTVSS”, for which the “polyreactivity (PSR sort gate)” value was “low polyreactivity”.

For the sequence “QVQLVESGGGLVQAGGSLRLSCAASGRIFYYYAMGWSRPAPGTERELVASITFSGGRTFYADSVKGRFTISRDNAKKTVYLQMNSLKPEDTAVYYCAAVRWGRRSGGLVAEYDYWGQGTQVNVSS”, the “polyreactivity (PSR sort gate)” value is reported as “high polyreactivity”.

For “QVQLVESGGGLVQAGGSLRLSCAASGSIFFQNAMGWYRQAPGKERELVATITSSVGSTYYADSVKGRFTISRDNAKNTVYFQMNSLKPEDTAVYYCNVRFFSAALWYTYFGYDYWGQGTQVTVSS”, the “polyreactivity (PSR sort gate)” value is given as “low polyreactivity”.

For the sequence “QVQLVESGGGLVQAGGSLRLRCAASGFTSYINAMGWYRQAPGKERELVAGITWSTGNTYYADSVKGRFTISRDNAKNTVYLQMNSLKPEDTAVYYCAADFYVAYVGVQPYWMDYWGQGTEVTVSS”, the “polyreactivity (PSR sort gate)” value is “low polyreactivity”.

On to “QVQLEESGGGLVQAGGSLRLSCAASGSTFESYAMGWYRQAPGKERELVAAISWRVGSTYYADSVKGRFTISRDNAKNTFYLQMNILKPEDTAVYYCASKGWYSHYGGYDYWGQGTQVTVSS”, for which the “polyreactivity (PSR sort gate)” value is recorded as “low polyreactivity”.

Regarding “QVQLVESGGGLVQAGGSLRLSCAASGSTFRFNAMGWYRQAPGKERELVAAITSTGSTYYADSVKGRFTISRDNAKNTVYLQMNSLKPEDTADYYCAATYPRYRATPRYYSWGQGTQVTVSS”, the “polyreactivity (PSR sort gate)” value is on record as “high polyreactivity”.

Regarding “QVQLVESGGGLVQAGGSLRLSCAASGSIFPAYDMGWYRQAPGKERELVAAIDRGGSTYYADSVKGRFTISRDNAKNTVYLQMNSLKPEDTAVYYCATGYWNTSVYVRLEKRDYWGQGTQVTVSS”, the “polyreactivity (PSR sort gate)” value was “low polyreactivity”.

Turning to “QVQLVESGGGLVQAGGSLRLRCAASGSIFKPYAMGWYRQAPGNERELVAAINRGGTSTYYADSVKGRFTISRDNAKNTVYFQMNSLKPEDTAVYYCAAPNRYSVPMYYWGQGTQVTVSS”, the “polyreactivity (PSR sort gate)” value is “low polyreactivity”.
